Source: PMC11229335, “The translocation activity of Rad54 reduces crossover outcomes during homologous recombination”
Changes are numbered by the printed parent chain.

Key:
Assay in all cases: EMSA; 3 mM MgCl2; 0-50 nM protein, 10 nM DNA; EMSA: 35 mM Tris-Cl pH 7.5, 3 mM MgCl2, 50 mM KCl, 1 mM DTT, 10% glycerol, 30 C, 5 min; curtains: 20 mM Tris-OAc pH 7.5, 50 mM NaCl, 10 mM MgOAc2, 200 ng/ul BSA, 1 mM DTT
Conditions in all cases: protein: recombinant; label: 5'-Atto647N on strand 1; blunt
Rad54 R272Q = biological target: T1, Rad54 R272Q (Saccharomyces cerevisiae, UniProt P32863 1-898, R272Q)
T1 sequence: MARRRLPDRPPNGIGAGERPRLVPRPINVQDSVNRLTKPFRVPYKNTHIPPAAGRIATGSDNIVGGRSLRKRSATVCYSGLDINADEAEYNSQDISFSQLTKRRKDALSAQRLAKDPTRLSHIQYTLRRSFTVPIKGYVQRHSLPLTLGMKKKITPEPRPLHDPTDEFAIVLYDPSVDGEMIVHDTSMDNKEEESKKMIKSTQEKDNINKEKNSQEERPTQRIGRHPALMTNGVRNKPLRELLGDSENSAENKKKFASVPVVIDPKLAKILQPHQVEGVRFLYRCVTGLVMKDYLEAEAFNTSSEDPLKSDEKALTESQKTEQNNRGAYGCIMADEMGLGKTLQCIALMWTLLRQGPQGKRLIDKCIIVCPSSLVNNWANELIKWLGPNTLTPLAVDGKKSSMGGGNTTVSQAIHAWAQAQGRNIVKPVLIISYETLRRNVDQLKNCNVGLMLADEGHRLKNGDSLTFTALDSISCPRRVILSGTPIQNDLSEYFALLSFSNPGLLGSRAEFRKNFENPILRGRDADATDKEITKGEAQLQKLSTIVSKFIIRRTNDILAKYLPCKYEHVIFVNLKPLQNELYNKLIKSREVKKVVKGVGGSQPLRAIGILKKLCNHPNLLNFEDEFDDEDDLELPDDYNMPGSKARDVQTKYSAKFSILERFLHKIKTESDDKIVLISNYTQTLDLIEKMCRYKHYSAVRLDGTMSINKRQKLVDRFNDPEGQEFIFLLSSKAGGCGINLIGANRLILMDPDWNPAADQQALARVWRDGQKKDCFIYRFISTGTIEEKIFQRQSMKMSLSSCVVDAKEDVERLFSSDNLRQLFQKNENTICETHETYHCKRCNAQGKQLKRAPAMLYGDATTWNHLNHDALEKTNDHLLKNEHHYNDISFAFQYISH

Rad54 = biological target: T2, Rad54 (Saccharomyces cerevisiae, UniProt P32863 1-898)
T2 sequence: T1 sequence with Q272R

Rad54 R272A = biological target: T3, Rad54 R272A (Saccharomyces cerevisiae, UniProt P32863 1-898, R272A)
T3 sequence: T1 sequence with Q272A

Measured: binding result

B1: 90-mer EMSA dsDNA (dsDNA)
DNA 1: TGTAAAACGACGGCCAGTGAATTCGAGCTCGGTACCCGGGGATCCTCTAGAGTCGACCTGCAGGCATGCAAGCTTGGCGTAATCATGGTC
DNA 2: GACCATGATTACGCCAAGCTTGCATGCCTGCAGGTCGACTCTAGAGGATCCCCGGGTACCGAGCTCGAATTCACTGGCCGTCGTTTTACA
binds: all assays above
